According to paper PMC10992505, “Customized exogenous ferredoxin functions as an efficient electron carrier” (Bioresources and Bioprocessing, 2021):

B1: (Tepidiphilus thermophilus) (protein)
chain: VRTMEVAAVERPSEDIVVLHLTRPDRRPLPRWSPGAHIDIECGEPDRSRQYSLCSDPENRDAWRVAVQRDPASRGGSRWIHEEVRPGMLLRVRGPRNSFRLDEHAPRYLFLAGGIGITPIMTMAARAKELGTDYELHYSVRSRTSLIFVDELRQIHGDRLHVYVSEEGVRNDLAALIRRASAGTQIYACGPQRMLDTLERLIENRPEVTLRVEHFFGEPSHLDPAKERPFQVVLRNSGLTVEVPADKTLLEVLRAYNIEVQSDCEEGLCGTCEVSVVEGEVDHRDSVLTRAERRENRRMMCCCSRAKTERLVLDL
B2: Drosophila melanogaster Fdx2 (DmFdx2) (natural protein, UniProt Q8SZA8 30-152, looked up)
chain: STGLALKTKDVVNITFVRANGDKIKTSGKVGDSLLDVVVNNNVDLDGFGACEGTLTCSTCHLIFKTSDFEKLPDKPGDEELDMLDLAYELTDTSRLGCQITLSKDMEGLEVHVPSTINDARAA
notes: Drosophila melanogaster ferredoxin 2 (Fdx2), plant-type [2Fe-2S] ferredoxin; Carries a [2Fe-2S] cluster; Cloning into pET28a at NdeI would place the His6 tag at the N-terminus (surmised); also called free Fdx; plant-type Fdx; source: E. coli BL21(DE3), purified (Ni-NTA, Resource Q anion exchange)
B3: KshA, Rieske-type oxygenase of 3-ketosteroid-9-hydroxylase from Rhodococcus erythropolis (enzyme)
chain: MALGTGPLTTTDASTQSGAGEEIREIEAAAPPARFARGWHCLGLSNTYRDGQPHQIEAFGTSLVVFADSKGDIKILDAYCRHMGGNLAHGTVKGDSIACPFHDWRWGGNGKCTAIPYARRVPPLAKTRAWTTLEKNGQLFVWHDPQGNPPPAEVTIPDIEGFGSDEWSDWSWNTLTIEGSHCREIVDNVVDMAHFFYVHYSFPKYFKNIFEGHVASQYMESVGREDIISGTNYGDPNAVLRSDASYFGPSYMIDWIKSEANGQIIETVLINCHYPISNNAFVLQYGAMVKKLPGMDDESTAAMAAQFTEGVEMGFLQDVEIWKNKAPIDNPLLSEEDGPVYQLRRWYNQFYTDVENVTEDMTKRFEFEIDTTRAVESWKREVAENVAARDAQALETTS

Assays:
[1] = target: T1, PRF (CYP116B46 reductase domain, V465-L779) (Tepidiphilus thermophilus, UniProt A0A0K6ITW2, C736H/C766H, form not given); experiment: NADH oxidation, absorbance […] nm; assay type: biochemical
T1 construct: gene Ga0061068_103196
T1 sequence (A0A0K6ITW2 entry or part of it C736H/C766H, form open): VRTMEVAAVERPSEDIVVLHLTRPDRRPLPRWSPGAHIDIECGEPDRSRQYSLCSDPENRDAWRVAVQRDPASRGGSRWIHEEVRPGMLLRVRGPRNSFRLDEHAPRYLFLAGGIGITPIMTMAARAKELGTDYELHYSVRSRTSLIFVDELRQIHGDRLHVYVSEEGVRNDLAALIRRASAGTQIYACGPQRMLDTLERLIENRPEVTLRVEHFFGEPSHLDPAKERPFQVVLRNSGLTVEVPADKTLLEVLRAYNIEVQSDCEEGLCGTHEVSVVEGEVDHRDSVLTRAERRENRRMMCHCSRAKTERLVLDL

[2] = system: T2, TDO (TDO_R; toluene 2,3-dioxygenase reductase with TDO-Fdx); conditions: electron acceptor not stated; MTDO, plant-type cluster; fusion numbering
T2 construct: gene todA

purified protein = substrate: NC(=O)C1=CN([C@@H]2O[C@H](COP(=O)(O)OP(=O)(O)OC[C@H]3O[C@@H](n4cnc5c(N)ncnc54)[C@H](O)[C@@H]3O)[C@@H](O)[C@H]2O)C=CC1; experiment: purified protein; assay type: biochemical, Tepidiphilus thermophilus
[3] = target: PRF, reductase domain and Fdx (V465-L779) of Tepidiphilus thermophilus self-sufficient P450 CYP116B46 (Tepidiphilus thermophilus); experiment: ITC; 0.2 mM DmFdx2 in the syringe, 2 uL injections into 0.02 mM KshA or PRF in the cell; 20 mM HEPES pH 7.4, 25 °C; one-site binding model
[4] = target: B3; experiment: as above; conditions: both partners purified
[5] = target: B2; experiment: as above; conditions: both partners purified

Molecule: NC(=O)C1=CN([C@@H]2O[C@H](COP(=O)(O)OP(=O)(O)OC[C@H]3O[C@@H](n4cnc5c(N)ncnc54)[C@H](O)[C@@H]3O)[C@@H](O)[C@H]2O)C=CC1 [NADH]
Km [1]: 63.1 ± 2.37 µM
Km [2]: 63.5 ± 2.95 µM

Molecule: B1
Km (purified protein): 39.11 ± 1.49 µM
kcat (purified protein): 66.43 ± 0.34 s⁻¹
kcat/Km (purified protein): 1.7e+06 M⁻¹ s⁻¹

Molecule: B2
Ka [3]: 1.5e+07 M⁻¹
dH [3]: -1.91 kcal/mol
stoichiometry N [3]: 0.75
dH [4]: -1.43 ± 0.0311 kcal/mol
stoichiometry N [4]: 0.4 ± 0.02

Molecule: B3
Ka [5]: 2.1e+07 M⁻¹
